Measurements as given in article PMC10075959 (Science Advances, 2023).
Residue numbers refer to the chain shown, from its start. Numbers in names are those of the source.

B1: NLRS:L222M peptide (peptide)
chain: MAGNGGDAALALMLLDRLNQLESKMSGKGQQQQGQTV
B2: NLRS:L222M/G215C double mutant peptide (peptide)
chain: B1 chain with G6C
B3: NLRS:G215C peptide (peptide)
chain: B1 chain with G6C, M13L
B4: NLRS:G215S peptide (peptide)
chain: B1 chain with G6S, M13L
B5: NLRS:G215C peptide (peptide)
peptide: B1 chain with G6C, M13L
B6: NLRS:G215S peptide (peptide)
peptide: B1 chain with G6S, M13L

Molecular target: the molecule itself
Test: AUC

Row | Protein | binding result
1 | B1 | binds
2 | B2 | binds
3 | B3 | binds
4 | B4 | binds

Molecular target: the molecule itself
Test: AUC
Remark: another data set of the same source

Row | Protein | binding result
5 | B5 | binds
6 | B6 | binds
